From PMC8881488, “Intricate coupling between the transactivation and basic-leucine zipper domains governs phosphorylation of transcription factor ATF4 by casein kinase 2” (The Journal of Biological Chemistry, 2022)

Target: T1, ATF4-275 (isolated transactivation domain of activating transcription factor 4) (human, UniProt P18848 1-275)
T1 construct: 15N-labelled (expressed in minimal medium) for the NMR titration; also called isolated TAD; ATF4 TAD; not shown: GST, N-terminal, cleaved
T1 sequence (looked up): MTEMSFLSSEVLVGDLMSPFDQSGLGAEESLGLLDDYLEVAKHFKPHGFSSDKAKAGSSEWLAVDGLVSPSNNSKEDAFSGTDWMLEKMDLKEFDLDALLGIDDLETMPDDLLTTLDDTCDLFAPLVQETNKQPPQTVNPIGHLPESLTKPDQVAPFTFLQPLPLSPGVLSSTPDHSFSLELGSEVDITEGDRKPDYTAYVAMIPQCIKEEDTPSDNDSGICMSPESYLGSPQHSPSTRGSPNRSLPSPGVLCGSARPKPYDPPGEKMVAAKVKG
Experiment: NMR titration; 15N-labeled ATF4-275 titrated with increasing concentrations of unlabeled ATF4-bZip; 2D 1H-15N TROSY-HSQC, amide crosspeak intensity ratios; NMR samples in 20 mM MES pH 6.5, 50 mM NaCl
Details: both partners purified

B1: ATF4-bZip (isolated basic-leucine zipper domain of activating transcription factor 4) (domain or fragment, human, UniProt P18848 276-351, looked up)
chain: EKLDKKLKKMEQNKTAATRYRQKKRAEQEALTGECKELEKKNEALKERADSLAKEIQYLKDLIEEVRKARGKKRVP
notes: The limits 276-351 are those printed for the bZip domain; also called bZip domain; isolated bZip domain; source: E. coli BL21(DE3), purified (Glutathione-Sepharose, TEV cleavage, Superdex 200 gel filtration); not shown: GST, N-terminal, cleaved
  binding result: binds
